Test results as given in article PMC7093966.

Target: FITC-Aβ42 (UniProt P05067)
Assay: solid-phase fluorescence binding assay (FITC-peptide on coated plate); black 96-well plates coated with 50 μg/mL rat-tail collagen-I or 10% BSA; 1 μM FITC-Aβ42 in RPMI with or without 200 μg/mL HDL (total, apoE-depleted or apoE-enriched) or BSA; 24 h at 37 °C, 5% CO2; PBS washes; excitation 490 nm, emission 520 nm

FITC-Aβ42, sequence (P05067 672-713): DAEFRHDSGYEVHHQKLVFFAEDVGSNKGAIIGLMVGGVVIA
High density lipoprotein (HDL), density 1.063-1.21 g/mL, sequence (P02649 whole entry, looked up): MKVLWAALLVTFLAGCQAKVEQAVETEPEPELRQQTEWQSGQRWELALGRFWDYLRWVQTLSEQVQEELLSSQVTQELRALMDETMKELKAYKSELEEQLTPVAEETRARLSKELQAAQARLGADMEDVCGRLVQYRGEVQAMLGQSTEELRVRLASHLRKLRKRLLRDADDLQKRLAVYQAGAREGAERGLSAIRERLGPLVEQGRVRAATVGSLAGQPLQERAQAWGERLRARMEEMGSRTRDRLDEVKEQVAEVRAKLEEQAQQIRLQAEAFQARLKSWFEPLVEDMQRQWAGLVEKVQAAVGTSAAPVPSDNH
High density lipoprotein (HDL), density 1.063-1.21 g/mL, sequence (P02652 whole entry, looked up): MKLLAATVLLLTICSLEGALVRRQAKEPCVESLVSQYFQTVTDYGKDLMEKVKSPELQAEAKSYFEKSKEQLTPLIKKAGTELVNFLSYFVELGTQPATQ
High density lipoprotein (HDL), density 1.063-1.21 g/mL, sequence (P02647 whole entry, looked up): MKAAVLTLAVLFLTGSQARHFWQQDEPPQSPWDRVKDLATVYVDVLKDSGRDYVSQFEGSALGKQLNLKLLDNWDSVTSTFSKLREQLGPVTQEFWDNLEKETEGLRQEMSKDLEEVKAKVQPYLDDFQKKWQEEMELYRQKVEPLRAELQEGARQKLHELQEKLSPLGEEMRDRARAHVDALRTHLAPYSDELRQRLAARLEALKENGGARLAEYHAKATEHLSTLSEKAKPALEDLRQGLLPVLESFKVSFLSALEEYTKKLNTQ

- fold reduction of Aβ42 binding to BSA: 11.8 fold
- fold reduction of Aβ42 binding to collagen-I: 7 fold
Substance: High density lipoprotein (HDL), density 1.063-1.21 g/mL (from UniProt P02647 19-267; P02652 19-100; P02649 19-317) (complex)
